According to IntAct's records for PubMed 22902367:

B1: Nectin-1 (Homo sapiens), Q15223 (parent)
chain: MARMGLAGAAGRWWGLALGLTAFFLPGVHSQVVQVNDSMYGFIGTDVVLHCSFANPLPSVKITQVTWQKSTNGSKQNVAIYNPSMGVSVLAPYRERVEFLRPSFTDGTIRLSRLELEDEGVYICEFATFPTGNRESQLNLTVMAKPTNWIEGTQAVLRAKKGQDDKVLVATCTSANGKPPSVVSWETRLKGEAEYQEIRNPNGTVTVISRYRLVPSREAHQQSLACIVNYHMDRFKESLTLNVQYEPEVTIEGFDGNWYLQRMDVKLTCKADANPPATEYHWTTLNGSLPKGVEAQNRTLFFKGPINYSLAGTYICEATNPIGTRSGQVEVNITEFPYTPSPPEHGRRAGPVPTAIIGGVAGSILLVLIVVGGIVVALRRRRHTFKGDYSTKKHVYGNGYSKAGIPQHHPPMAQNLQYPDDSDDEKKAGPLGGSSYEEEEEEEEGGGGGERKVGGPHPKYDEDAKRPYFTVDEAEARQDGYGDRTLGYQYDPEQLDLAENMVSQNDGSFISKKEWYV

Variants of: B1
Settings: with NECTIN3, Q9NQS3-1
Sequence of NECTIN3, Q9NQS3-1 (Q9NQS3 whole entry, looked up): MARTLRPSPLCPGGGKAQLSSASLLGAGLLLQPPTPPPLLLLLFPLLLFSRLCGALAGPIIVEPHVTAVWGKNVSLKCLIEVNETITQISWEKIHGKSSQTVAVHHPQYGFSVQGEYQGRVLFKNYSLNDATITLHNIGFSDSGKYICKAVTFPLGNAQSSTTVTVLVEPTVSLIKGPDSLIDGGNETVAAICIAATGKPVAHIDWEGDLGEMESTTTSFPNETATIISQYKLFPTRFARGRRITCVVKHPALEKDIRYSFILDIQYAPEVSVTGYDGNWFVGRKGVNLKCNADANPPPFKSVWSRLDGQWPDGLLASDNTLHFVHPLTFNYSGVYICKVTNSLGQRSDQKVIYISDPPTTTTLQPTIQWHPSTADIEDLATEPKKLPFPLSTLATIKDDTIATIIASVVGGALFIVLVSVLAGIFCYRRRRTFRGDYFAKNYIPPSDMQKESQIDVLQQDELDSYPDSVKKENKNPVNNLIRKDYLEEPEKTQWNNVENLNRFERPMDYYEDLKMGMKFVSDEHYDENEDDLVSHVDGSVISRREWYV

Row | effect of a mutation on the interaction | Variant
1 | disrupting interaction strength | F129D

Variants of: B1
Settings: with nect4_human NECTIN4, Q96NY8
Sequence of nect4_human NECTIN4, Q96NY8 (Q96NY8 whole entry): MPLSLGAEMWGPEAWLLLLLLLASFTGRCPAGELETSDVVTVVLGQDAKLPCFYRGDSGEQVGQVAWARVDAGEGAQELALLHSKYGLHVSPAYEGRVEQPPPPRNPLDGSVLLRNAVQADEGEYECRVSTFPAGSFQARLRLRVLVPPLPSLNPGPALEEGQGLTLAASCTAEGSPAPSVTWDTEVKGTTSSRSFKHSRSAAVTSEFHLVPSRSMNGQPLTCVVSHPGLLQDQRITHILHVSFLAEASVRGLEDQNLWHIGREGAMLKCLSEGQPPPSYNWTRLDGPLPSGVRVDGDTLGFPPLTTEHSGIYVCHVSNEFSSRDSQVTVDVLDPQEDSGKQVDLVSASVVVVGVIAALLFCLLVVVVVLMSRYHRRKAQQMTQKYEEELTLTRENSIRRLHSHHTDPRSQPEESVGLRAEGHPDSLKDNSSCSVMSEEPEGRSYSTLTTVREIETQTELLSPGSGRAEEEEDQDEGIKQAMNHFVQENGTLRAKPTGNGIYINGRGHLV

Row | effect of a mutation on the interaction | Variant
2 | disrupting interaction strength | F129D
